# Measured values as given in PMC2630774 (FEBS letters, 2008).
# T1: AhR (aryl hydrocarbon receptor), baculovirus expressed 6His fusion (human, UniProt P35869 11-848)
# T1 sequence (looked up): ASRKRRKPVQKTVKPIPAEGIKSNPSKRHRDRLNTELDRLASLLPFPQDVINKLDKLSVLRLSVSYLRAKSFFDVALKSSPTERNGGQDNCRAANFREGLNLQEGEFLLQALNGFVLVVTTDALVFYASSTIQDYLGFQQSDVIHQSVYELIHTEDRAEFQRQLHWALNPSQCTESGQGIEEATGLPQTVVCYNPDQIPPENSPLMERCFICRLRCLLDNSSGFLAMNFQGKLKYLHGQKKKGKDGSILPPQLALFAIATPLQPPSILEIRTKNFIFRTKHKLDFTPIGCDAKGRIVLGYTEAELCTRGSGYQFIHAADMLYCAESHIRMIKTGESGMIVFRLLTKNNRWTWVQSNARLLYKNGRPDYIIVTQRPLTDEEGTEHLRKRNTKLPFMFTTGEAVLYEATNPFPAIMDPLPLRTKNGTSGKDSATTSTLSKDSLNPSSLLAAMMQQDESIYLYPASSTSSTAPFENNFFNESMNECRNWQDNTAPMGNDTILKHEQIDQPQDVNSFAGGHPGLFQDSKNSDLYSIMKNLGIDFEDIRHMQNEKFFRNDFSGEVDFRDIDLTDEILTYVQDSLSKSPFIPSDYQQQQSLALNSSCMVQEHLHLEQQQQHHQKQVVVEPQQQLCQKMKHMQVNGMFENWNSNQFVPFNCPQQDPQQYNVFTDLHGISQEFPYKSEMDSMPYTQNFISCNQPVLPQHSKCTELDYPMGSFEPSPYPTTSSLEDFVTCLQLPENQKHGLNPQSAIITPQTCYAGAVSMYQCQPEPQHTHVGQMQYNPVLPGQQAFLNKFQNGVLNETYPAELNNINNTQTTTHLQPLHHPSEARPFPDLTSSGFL
# B1: Arnt (AhR nuclear translocator), baculovirus expressed 6His fusion (natural protein)
# chain: not shown
# Legend:
# [1] = biological target: B1; experiment: co-IP
# [2] = biological target: T1, AhR (aryl hydrocarbon receptor), …; experiment: native gel or EMSA
# [3] = biological target: B1; experiment: native gel or EMSA
Binder,binding result [3],further results
"32P-CΔ553 (AhR deletion construct with C-terminal 553 amino acids deleted, thioredoxin released, 32P-labelled) (domain or fragment, human, UniProt P35869 1-295, looked up, 32P-phosphate (HMK phosphorylation using 32P-gamma ATP; residue not stated)) MNSSSANITYASRKRRKPVQKTVKPIPAEGIKSNPSKRHRDRLNTELDRLASLLPFPQDVINKLDKLSVLRLSVSYLRAKSFFDVALKSSPTERNGGQDNCRAANFREGLNLQEGEFLLQALNGFVLVVTTDALVFYASSTIQDYLGFQQSDVIHQSVYELIHTEDRAEFQRQLHWALNPSQCTESGQGIEEATGLPQTVVCYNPDQIPPENSPLMERCFICRLRCLLDNSSGFLAMNFQGKLKYLHGQKKKGKDGSILPPQLALFAIATPLQPPSILEIRTKNFIFRTKHKLDF",,binding result [1]: binds
B1,,binding result [2]: binds
"TH-CΔ553 (thioredoxin fusion of CΔ553, a deletion construct of human AhR) (domain or fragment, UniProt P35869 1-295, looked up) MNSSSANITYASRKRRKPVQKTVKPIPAEGIKSNPSKRHRDRLNTELDRLASLLPFPQDVINKLDKLSVLRLSVSYLRAKSFFDVALKSSPTERNGGQDNCRAANFREGLNLQEGEFLLQALNGFVLVVTTDALVFYASSTIQDYLGFQQSDVIHQSVYELIHTEDRAEFQRQLHWALNPSQCTESGQGIEEATGLPQTVVCYNPDQIPPENSPLMERCFICRLRCLLDNSSGFLAMNFQGKLKYLHGQKKKGKDGSILPPQLALFAIATPLQPPSILEIRTKNFIFRTKHKLDF",binds,
"unlabelled CΔ553 (AhR deletion construct with C-terminal 553 amino acids deleted, without thioredoxin fusion) (domain or fragment, human, UniProt P35869 1-295, looked up) MNSSSANITYASRKRRKPVQKTVKPIPAEGIKSNPSKRHRDRLNTELDRLASLLPFPQDVINKLDKLSVLRLSVSYLRAKSFFDVALKSSPTERNGGQDNCRAANFREGLNLQEGEFLLQALNGFVLVVTTDALVFYASSTIQDYLGFQQSDVIHQSVYELIHTEDRAEFQRQLHWALNPSQCTESGQGIEEATGLPQTVVCYNPDQIPPENSPLMERCFICRLRCLLDNSSGFLAMNFQGKLKYLHGQKKKGKDGSILPPQLALFAIATPLQPPSILEIRTKNFIFRTKHKLDF",binds,
